Patent publication US20100285583A1, “COMPOUNDS AND METHODS FOR INHIBITING PLATELET AGGREGATION” (priority 2009, published 2010)

What was measured:
[1] = Surface plasmon resonance, immobilized sulfatide liposomes; details: SPR, estimated; read-out: dissociation constant (KD), sulfatide binding
Description: Surface plasmon resonance (SPR) binding experiments were performed on a BIAcore X instrument using L1 sensorchips coated with ˜0.5 mM of mixed sulfatides or PtdIns(4,5)P2 size calibrated liposomes. N-PTB domain or its mutants binding experiments were performed in a degassed solution containing 10 mM Tris-HCI (pH 7.4) and 150 mM NaCl. This buffer was used during equilibration, association and dissociation phases. Proteins were added to this buffer at the indicated concentrations. Regeneration of the phospholipid bilayer after dissociation phase was carried out using 20 mM NaOH. For competition SPR, increasing molar amounts of dioctanoyl PtdIns(4,5)P2 were preincubated with 5 μM N-PTB for 20 min at room temperature. The entire reaction was then exposed to an L1 sensorchip containing immobilized sulfatide liposomes (˜0.5 mM).

Human washed platelets = experiment: Platelet adhesion assay; type: cell-based; details: 1.9 μM, TRAP
Description: Human washed platelets were incubated with BSA, Dab2 PTB or Dab2 PTB^4M (1.9 μM each) for 5 min at room temperature in the presence of 0.25 g/L fibrinogen. Aggregation was initiated by the addition of 10 μM TRAP, and reactions were incubated 20 min at 37° C. Samples were fixed with 3.7% formaldehyde in PBS, stained with Wright stain, and photographed. Wright stain was eluted with 20% ethanol, and absorbance was quantified at 415 nm.

[2] = Protein-lipid overlay assay, sulfatides; type: binding; details: Sphingolipid strips, GST-Dab2 PTB
Description: Membrane strips (SphingoStrips™) spotted with 100 pmol of sphingolipids were purchased from Echelon Research Laboratories. Membrane strips were incubated with 0.1 μg/ml of the Dab2 PTB domain or its mutants in 20 mM Tris-HCl (pH 8.0), 150 mM NaCl, 0.1% Tween-20 and 3% fatty acid-free bovine serum albumin overnight at 4° C. Following four washes with the same buffer, proteins bound to the membrane strips were probed with rabbit anti-GST antibody (Santa Cruz Biotech). Donkey anti rabbit-horse radish peroxidase (HRP) antibody was obtained from GE Healthcare. Detection was carried out using ECL reagent (Pierce). Also, lipid strips were prepared by spotting 1 μl of either sulfatides or PtdIns(4,5)P2 dissolved in chloroform:methanol:water (1:2:0.8 and 65:35:8, respectively) onto Hybond-C extra membranes (GE Healthcare) and protein binding was monitored as described above. Bound protein was quantified using the AlphaImager program and binding was calculated as a percentage of GST-PTB binding to 100 pmoles of spotted lipid.

B1: N-PTB: N-terminal phosphotyrosine binding domain (residues 1-241) of human Disabled-2 (Dab2), expressed as GST-fusion in E. coli (protein)
chain: MSNEVETSATNGQPDQQAAPKAPSKKEKKKGPEKTDEYLLARFKGDGVKYKAKLIGIDDVPDARGDKMSQDSMMKLKGMAARGRSQGQHKQRIWVNISLSGIKIIDEKTGVIEHEHPVNKISFIARDVTDNRAFGYVCGGEGQHQFFAIKTGQQAEPLVVDLKDLFQVIYNVKKKEEEKKKIEEASKAVENGSEALMILDDQTNKLKSGVDQMDLFGDMSTPPDLNSPTESKDILLVDLNS
In the case of B1, the Kd [1] is reported as ~1930 nM, the “effect on platelet adhesion to fibrinogen” value (Human washed platelets) is reported as “did not significantly affect platelet adhesion to fibrinogen” and the binding to sphingolipids [2] is reported as “preferentially bound to sulfatides”.
